Test [1] addresses mitochondrial respiratory complex III dimer (Chlamydomonas reinhardtii). Briefly: cryo-EM structure.
Test [2] addresses mitochondrial respiratory complex IV monomer (Chlamydomonas reinhardtii). The experiment in a line: cryo-EM structure.

This note sets out measurements from paper doi:10.1101/2024.09.03.610704.

Consider “cytochrome c (from UniProt P15451 1-112) (natural protein)”, for which the stoichiometry N (cyt. c per complex III dimer) in test [1] was 2. The substance further yielded a stoichiometry N (cyt. c per complex IV monomer) in test [2] of 1.
